Measurements: paper PMC10889886

How the values were obtained:
[1] = target: HCoV-229E Spike antigen (HCoV-229E) (UniProt P15423); assay: […], PBS running buffer; […]
[2] = target: soluble SARS-CoV-2 Spike (S) (SARS-CoV-2); assay: […], PBS running buffer; […]

Row | Substance | stoichiometry N [1] | stoichiometry N [2]
1 | HCoV-229E Spike antigen (from UniProt P15423 16-1173) (natural protein) | 3 | 
2 | soluble SARS-CoV-2 Spike (S) (domain or fragment) |  | 3
